Experimental data from patent US20110312897A1 (published 2011).
Where no end group is shown, it is not given here.

Experiments:
[1] = molecular target: T1, non-cleaved H3 tail peptide (H3 18-37), methylated at K27 (not fully specified; methylated K27 (degree of methylation shown only in FIG. 7C); biotinylated for the pull-down); experiment: fluorescence anisotropy
T1 peptide: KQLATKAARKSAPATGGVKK

[2] = molecular target: T2, cleaved H3 tail peptide (H3 22-37), methylated at K27 (not fully specified; also: K27 methylated, degree not given here, biotinylated, site not given here); experiment: fluorescence anisotropy
T2 peptide: TKAARK(Me)SAPATGGVKK

B1: chromodomain of mouse CBX7 (other)
chain: MELSAIGEQVFAVESIRKKRVRKGKVEYLVKWKGWPPKYSTWEPEEHILDPRLVMAYEEKEERDRASGYR
Kd [1]: 14.5 µM
Kd [2]: 44 µM
